# B1: unnamed (protein)
# chain 1: QVQLVQSGAEVKKPGSSVKVSCKASGYSFTDYHIHWVRQAPGQGLEWMGVINPMYGTTDYNQRFKGRVTITADESTSTAYMELSSLRSEDTAVYYCARYDYFTGTGVYWGQGTLVTVSS
# chain 2: DIVMTQTPLSLSVTPGQPASISCRSSRSLVHSRGNTYLHWYLQKPGQSPQLLIYKVSNRFIGVPDRFSGSGSGTDFTLKISRVEAEDVGVYYCSQSTHLPFTFGQGTKLEIK
# B2: unnamed (protein)
# chain 1: QVTLRESGPALVKPTQTLTLTCTVSGFSLSAYSVNWIRQPPGKALEWLAMIWGDGKIVYNSALKSRLTISKDTSKNQVVLTMTNMDPVDTATYYCAGDGYYPYAMDNWGQGSLVTVSS
# chain 2: DIVMTQSPDSLSVSLGERATINCRASKSVDSYGNSFMHWYQQKPGQPPKLLIYLASNLESGVPDRFSGSGSGTDFTLTISSLQAEDVAVYYCQQNNEDPRTFGGGTKVEIK
# B3: unnamed (protein)
# chain 1: EVQLLESGGGLVQPGGSLRLSCAASGFTFSIYSMNWVRQAPGKGLEWVSSIGSSGGTTYYADSVKGRFTISRDNSKNTLYLQMNSLRAEDTAVYYCAGSQWLYGMDVWGQGTTVTVSS
# chain 2: DIQMTQSPSSLSASVGDRVTITCRSSQRIMTYLNWYQQKPGKAPKLLIFVASHSQSGVPSRFRGSGSETDFTLTISGLQPEDSATYYCQQSFWTPLTFGGGTKVEIK
# B4: unnamed (protein)
# chain 1: EVQLVESGGGLVKPGGSLKLSCAASGFKFSRYAMSWVRQAPGKRLEWVATISSGGSYIYYPDSVKGRFTISRDNVKNTLYLQMSSLRSEDTAMYYCARRDYDLDYFDSWGQGTLVTVSS
# chain 2: DIQMTQSPSSLSASVGDRVTITCKASRDIRSYLTWYQQKPGKAPKTLIYYATSLADGVPSRFSGSGSGQDYSLTISSLESDDTATYYCLQHGESPFTLGSGTKLEIK
# B5: unnamed (protein)
# chain 1: EVKLEESGGGLVQPGGSMKLSCVASGFIFSNHWMNWVRQSPEKGLEWVAEIRSKSINSATHYAESVKGRFTISRDDSKSAVYLQMTDLRTEDTGVYYCSRNYYGSTYDYWGQGTTLTVSS
# chain 2: DILLTQSPAILSVSPGERVSFSCRASQFVGSSIHWYQQRTNGSPRLLIKYASESMSGIPSRFSGSGSGTDFTLSINTVESEDIADYYCQQSHSWPFTFGSGTNLEVK
# B6: unnamed (protein)
# chain 1: QVQLVQPGAEVVKPGASVKLSCKTSGYTFTSNWMHWVKQAPGQGLEWIGEIDPSDSYTNYNQNFQGKAKLTVDKSTSTAYMEVSSLRSDDTAVYYCARGSNPYYYAMDYWGQGTSVTVSS
# chain 2: EIVLTQSPAIMSASPGERVTMTCSASSGVNYMHWYQQKPGTSPRRWIYDTSKLASGVPARFSGSGSGTSYSLTISSMEPEDAATYYCHQRGSYTFGGGTKLEIK
# B7: unnamed (protein)
# chain 1: QVQLQESGPGLVKPSETLSLTCTVSGFSLTSYIVDWIRQPPGKGLEWIGVIWAGGSTGYNSALRSRVSITKDTSKNQFSLKLSSVTAADTAVYYCASAAYYSYYNYDGFAYWGQGTLVTVSS
# chain 2: DVVMTQSPLSLPVTLGQPASISCKSSQSLLYTDGKTYLYWFLQRPGQSPRRLIYLVSKLDSGVPDRFSGSGSGTDFTLKISRVEAEDVGVYYCLQSTHFPHTFGGGTKVEIK
# B8: unnamed (protein)
# chain 1: EVQLVESGGGVVQPGRSLRLSCSASGFDFTTYWMSWVRQAPGKGLEWIGEIHPDSSTINYAPSLKDRFTISRDNAKNTLFLQMDSLRPEDTGVYFCASLYFGFPWFAYWGQGTPVTVSS
# chain 2: DIQLTQSPSSLSASVGDRVTITCKASQDVGTSVAWYQQKPGKAPKLLIYWTSTRHTGVPSRFSGSGSGTDFTFTISSLQPEDIATYYCQQYSLYRSFGQGTKVEIK
# B9: unnamed (protein)
# chain 1: EVQLVESGGGLVQPGGSLRLSCAASGFSFSDFAMSWVRQAPGKGLEWVATIGRVAFHTYYPDSMKGRFTISRDNSKNTLYLQMNSLRAEDTAVYYCARHRGFDVGHFDFWGQGTLVTVSS
# chain 2: DIQMTQSPSSLSASVGDRVTITCRSSETLVHSSGNTYLEWYQQKPGKAPKLLIYRVSNRFSGVPSRFSGSGSGTDFTLTISSLQPEDFATYYCFQGSFNPLTFGQGTKVEIK
# B10: unnamed (protein)
# chain 1: EVQLVQSGAEVKKPGASVKVSCKASGYRFTNYWIHWVRQAPGQGLEWIGGINPGNNYATYRRKFQGRVTMTADTSTSTVYMELSSLRSEDTAVYYCTREGYGNYGAWFAYWGQGTLVTVSS
# chain 2: DVQVTQSPSSLSASVGDRVTITCRSSQSLANSYGNTFLSWYLHKPGKAPQLLIYGISNRFSGVPDRFSGSGSGTDFTLTISSLQPEDFATYYCLQGTHQPYTFGQGTKVEIK
# B11: unnamed (protein)
# chain 1: QVQLVQSGAEVMKPGSSVKVSCKASGYTFSWYWLEWVRQAPGHGLEWMGEIDPGTFTTNYNEKFKARVTFTADTSTSTAYMELSSLRSEDTAVYYCARFSHFSGSNYDYFDYWGQGTLVTVSS
# chain 2: EIVMTQSPATLSVSPGERATLSCRASQSIGTNIHWYQQKPGQAPRLLIYYASESISGIPARFSGSGSGTEFTLTISSLQSEDFAVYYCQQSWSWPTTFGGGTKVEIK
# B12: unnamed (protein)
# chain 1: EVQLVESGGGVVQPGRSLRLSCSASGFIFSRYDMSWVRQAPGKGLEWVAYISHGGAGTYYPDSVKGRFTISRDNSKNTLFLQMDSLRPEDTGVYFCARGGVTKGYFDVWGQGTPVTVSS
# chain 2: DIQMTQSPSSLSASVGDRVTITCRASGNIHNYLTWYQQTPGKAPKLLIYNAKTLADGVPSRFSGSGSGTDYTFTISSLQPEDIATYYCQHFWSIPYTFGQGTKLQIT
# B13: unnamed (protein)
# chain 1: QVQLVQSGAEVKKPGSSVKVSCKASGYTFTDYNMHWVRQAPGQGLEWIGYIYPYNGGTGYNQKFKSKATITADESTNTAYMELSSLRSEDTAVYYCARGRPAMDYWGQGTLVTVSS
# chain 2: DIQMTQSPSSLSASVGDRVTITCRASESVDNYGISFMNWFQQKPGKAPKLLIYAASNQGSGVPSRFSGSGSGTDFTLTISSLQPDDFATYYCQQSKEVPWTFGQGTKVEIK
# B14: unnamed (protein)
# chain 1: EVQLVESGGGLVQPGGSLRLSCAASGFTFNNYAMNWVRQAPGKGLDWVSTISGSGGTTNYADSVKGRFIISRDSSKHTLYLQMNSLRAEDTAVYYCAKDSNWGNFDLWGRGTLVTVSS
# chain 2: not shown
# B15: unnamed (protein)
# chain 1: EVQLLESGGGLVQPGGSLRLSCAASGFTFSHYIMMWVRQAPGKGLEWVSGIYSSGGITVYADSVKGRFTISRDNSKNTLYLQMNSLRAEDTAVYYCAYRRIGVPRRDEFDIWGQGTMVTVSS
# chain 2: DIQMTQSPSTLSASVGDRVTITCRASQSISSWLAWYQQKPGKAPKLLIYKASTLESGVPSRFSGSGSGTEFTLTISSLQPDDFATYYCQQYNTYWTFGQGTKVEIK
# B16: unnamed (protein)
# chain 1: QVQLVESGGGVVQPGRSLRLSCAASGFTFSSFGMHWVRQAPGKGLEWVAYISSGSFTIYYADSVKGRFTISRDNSKNTLYLQMNSLRAEDTAVYYCARMRKGYAMDYWGQGTLVTVSS
# chain 2: DVVMTQSPLSLPVTLGQPASISCRSSQIIIHSDGNTYLEWFQQRPGQSPRRLIYKVSNRFSGVPDRFSGSGSGTDFTLKISRVEAEDVGVYYCFQGSHVPHTFGQGTKVEIK
# B17: unnamed (protein)
# chain 1: QVQLVQSGGGLVQPGGSLRLSCAASGFTFSSYYMSWVRQAPGKGLEWVSGIYSDGTTHYGDSVKGRFTISRDNAKNTVYLQLNSLRAEDTAMYYCAKGAGPTWWYALDAWGQGTLVTVSS
# chain 2: DIQLTQSPSSVSVSVGERVTIDCKSSQSVLSASNTYLNWYQQKPGQAPQLLIYYASTRESGVPDRFSGSGSGTDFTLTISSLQAEDAAVYYCQQAYRAPVTFGQGTKLEIK
# B18: unnamed (protein)
# chain 1: QVQLKESGPGLVAPSQSLSITCTVSGFSVTNYGVHWVRQPPGKGLEWLGVIWAGGITNYNSAFMSRLSISKDNSKSQVFLKMNSLQIDDTAMYYCASRGGHYGYALDYWGQGTSVTVSS
# chain 2: SIVMTQTPKFLLVSAGDRVTITCKASQSVSNDVTWYQQKAGQSPKLLIYSASNRYSGVPDRFTGSGYGTAFTFTISTVQAEDLAVYFCQQDYSSFGGGTKLEIK
# B19: unnamed (protein)
# chain 1: QVQLVESGGGVVQPGRSLRLSCAASGFTFSSYGMHWVRQAPGKGLEWVAVISYEESNRYHADSVKGRFTISRDNSKITLYLQMNSLRTEDTAVYYCARDGGIAAPGPDYWGQGTLVTVSS
# chain 2: DIVMTQSPLSLTVTPGEPASISCRSSQSLLYSNGYNYLDWYLQKPGQSPQVLISLGSNRASGVPDRFSGSGSGTDFTLKISRVEAEDVGVYYCMQARQTPFTFGPGTKVDIR
# B20: unnamed (protein)
# chain 1: EVQLVESGGGLVRPGGSLRLSCAASGFTFSNYDMHWVRQATGKGLEWVSAITAAGDIYYPGSVKGRFTISRENAKNSLYLQMNSLRAGDTAVYYCARGRYSGSGSYYNDWFDPWGQGTLVTVSS
# chain 2: EIVLTQSPATLSLSPGERATLSCRASQSVSSYLAWYQQKPGQAPRLLIYDASNRATGIPARFSGSGSGTDFTLTISSLEPEDFAVYYCQQRSNWPLTFGGGTKVEIK
# Assay: patients with anti-drug antibodies; higher = more immunogenic
row,Protein,patients with anti-drug antibodies [%]
1,B1,8.5
2,B2,30
3,B3,7.4
4,B4,15.8
5,B5,30.5
6,B6,0
7,B7,4
8,B8,0
9,B9,18
10,B10,2
11,B11,6.3
12,B12,16.8
13,B13,0
14,B14,3.9
15,B15,7
16,B16,0
17,B17,0
18,B18,100
19,B19,1.8
20,B20,3.6
